Reference: patent US20240279318A1 (NANJING LEGEND BIOTECH, published 2024)
Numbering of substitutions follows the chain as printed. In names and notes the source's numbering stands. Read-outs that look alike come from different tables or passages of the source. One block for each binder: values may come before it.

Key:
[1] = target: T1, AFP158/HLA-A*02:01 complex (human); assay: SPR, scFv-mIgG2aFc from supernatant captured, complex as analyte
T1 construct: biotinylated on the BSP by BirA for ELISA and panning; also called biotinylated AFP158/HLA-A*02:01 complex; Bio-AFP158
Method: (§1) The binding affinity between selected antibodies and AFP158/HLA-A*02:01 complex was determined by surface plasmon resonance (SPR) on a BIAcore T200 instrument (GE Healthcare). The experiment was carried out as follows. The purified sdAb/scFv-mIgG2aFc protein were captured through mIgG2a-Fc onto the sensorchip. […] On-rate (kₐ) and off-rate (kd) were calculated based on association and dissociation curve, and were used to estimate the equilibrium dissociation constant (KD).
(§2) Humanized heavy chains and light chains were combined, and used to produce a series of humanized antibodies. These antibodies were synthesized as scFv-mIgG2aFc and transiently produced using HEK293 cells. The antibodies in the supernatant were subjected to SPR affinity assessment.

[2] = target: T1, AFP158/HLA-A*02:01 complex; assay: as above; remark: listed apart in the source
Method: as §1, §2

[3] = target: T1, AFP158/HLA-A*02:01 complex; assay: as above; remark: listed apart in the source
Method: as §1, §2

[4] = target: ARNTL peptide/HLA-A*02:01 complex (recombinant) (human); assay: SPR
[5] = target: ATG9A peptide/HLA-A*02:01 complex (recombinant) (human); assay: SPR
[6] = target: BRCA2 peptide/HLA-A*02:01 complex (recombinant) (human); assay: SPR
[7] = target: CDC14A peptide/HLA-A*02:01 complex (recombinant) (human); assay: SPR
[8] = target: NR2E1 peptide/HLA-A*02:01 complex (recombinant) (human); assay: SPR
[9] = target: OR1I1 peptide/HLA-A*02:01 complex (recombinant) (human); assay: SPR
[10] = target: OR51B6 peptide/HLA-A*02:01 complex (recombinant) (human); assay: SPR
[11] = target: OR6C1 peptide/HLA-A*02:01 complex (recombinant) (human); assay: SPR
[12] = target: PTP4A1 peptide/HLA-A*02:01 complex (recombinant) (human); assay: SPR
[13] = target: RP1 peptide/HLA-A*02:01 complex (recombinant) (human, UniProt P16213 21-119 (Pongo pygmaeus entry)); assay: SPR
[14] = target: RCL1 peptide/HLA-A*02:01 complex (recombinant) (human, UniProt P16213 21-119 (Pongo pygmaeus entry)); assay: SPR
[15] = target: ZNF566 peptide/HLA-A*02:01 complex (recombinant) (human); assay: SPR
[16] = target: T1, AFP158/HLA-A*02:01 complex; assay: SPR; vs AS170036 VL1VH1
[17] = target: T1, AFP158/HLA-A*02:01 complex; assay: SPR; vs AS170036 VL1VH1; remark: listed apart in the source
Method: The experiment was carried out as follows. The crude scFv protein were captured onto the sensorchip. Different concentrations (320, 160, 40 nM) of AFP158/HLA-A*02:01 complex flowed over the sensorchip surface, and were allowed to bind the antibody fragment for 100 s followed by injection of the running buffer to allow dissociation of the complex. On-rate (kd) and off-rate (kd) were calculated based on association and dissociation curve, and were used to estimate the equilibrium dissociation constant (KD).

[18] = target: T1, AFP158/HLA-A*02:01 complex; assay: SPR, crude scFv captured;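 note: Peptide–MHC complex flowed at several concentrations over sensorchip-captured scFv, Kd derived from on- and off-rates obtained from the association and dissociation curves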

Kd [1]: 380 nM
koff [1]: 0.071 s⁻¹
kon [1]: 190000 M⁻¹ s⁻¹
B1: AS170036 VL1VH2 scFv-mIgG2aFc (Fc fusion, not shown: a dimerising Fc or GST)
scFv: QSALTQPRSVSGSPGQSVTISCAGTSSDVGSENYVSWYQQHPGKAPKLMIYQVNKRASGVPDRFSGSKSGNTASLTISGLQAEDEADYYCASYRSSDHNIVFGGGTKLTVLGGGGSGGGGSGGGGSEVQLVESGGGLVQPGGSLRLSCTASGFTFSSYAMSWVRQAPGKGLEWVSTINSGTGSPYYADSVKGRFTISRDNSKNTLYLQMNSLRAEDTAMYYCAKNFFDGSWFLGPPAMDYWGQGTLVTVSS

Kd [1]: 340 nM
koff [1]: 0.095 s⁻¹
kon [1]: 280000 M⁻¹ s⁻¹
B2: AS170036 VL2VH1 scFv-mIgG2aFc (Fc fusion, not shown: a dimerising Fc or GST)
scFv: B1 scFv with M49L, V60I, T149A, M219V

Kd [1]: 390 nM
koff [1]: 0.072 s⁻¹
kon [1]: 190000 M⁻¹ s⁻¹
B3: AS170036 VL2VH2 scFv-mIgG2aFc (Fc fusion, not shown: a dimerising Fc or GST)
scFv: B1 scFv with M49L, V60I

Kd [2]: 320 nM
koff [2]: 0.029 s⁻¹
kon [2]: 91000 M⁻¹ s⁻¹
B4: AS179723 VL1g1VH1g1 scFv-mIgG2aFc (Fc fusion, not shown: a dimerising Fc or GST)
scFv: QSVLTQPPSASGTPGQRVTISCSGSSNNIGGNYVNWYQQLPGTAPKLLIYDNKNRPSGVPDRFSGSKSGTSASLAISGLQSEDEADYYCASWDDSLSAVVFGGGTKLTVLGGGGSGGGGSGGGGSEVQLVESGGGLVQPGGSLRLSCAASGFTFLNYAMSWVRQAPGKGLEWVSSNSGAGSTYYADSVKGRFTISRDNSKNTLYLQMNSLRAEDTAVYYCAKGTNVGSWSSLHYWGQGTLVTVSS

Kd [2]: 56 nM
B5: AS179723 VL1g1VH1g1-N73Y scFv-mIgG2aFc (Fc fusion, not shown: a dimerising Fc or GST)
chain: B4 scFv with N198Y
notes: Humanized

Kd [3]: 520 nM
koff [3]: 0.065 s⁻¹
kon [3]: 130000 M⁻¹ s⁻¹
B6: AS179732 VL1VH1g1 scFv-mIgG2aFc (Fc fusion, not shown: a dimerising Fc or GST; small tags and cut ends)
scFv: B4 scFv with S23T, N27S, K53S, P56A, A98G, V99A

Kd [2]: 310 nM
koff [2]: 0.03 s⁻¹
kon [2]: 99000 M⁻¹ s⁻¹
B7: AS179723 VL1VH1g1 scFv-mIgG2aFc (Fc fusion, not shown: a dimerising Fc or GST)
scFv: B4 scFv with S23T

Kd [2]: 360 nM
koff [2]: 0.034 s⁻¹
kon [2]: 93000 M⁻¹ s⁻¹
B8: AS179723 VL1g1VH1 scFv-mIgG2aFc (Fc fusion, not shown: a dimerising Fc or GST)
scFv: B4 scFv with A185S

Kd [2]: 320 nM
koff [2]: 0.031 s⁻¹
kon [2]: 98000 M⁻¹ s⁻¹
B9: AS179723 VL1VH1 scFv-mIgG2aFc (Fc fusion, not shown: a dimerising Fc or GST)
scFv: B4 scFv with S23T, A185S

Kd [3]: 450 nM
koff [3]: 0.056 s⁻¹
kon [3]: 120000 M⁻¹ s⁻¹
B10: AS179732 VL1g1VH1 scFv-mIgG2aFc (Fc fusion, not shown: a dimerising Fc or GST; small tags and cut ends)
scFv: B4 scFv with N27S, K53S, P56A, A98G, V99A, A185S

Kd [3]: 440 nM
koff [3]: 0.056 s⁻¹
kon [3]: 130000 M⁻¹ s⁻¹
B11: AS179732 VL1VH1 scFv-mIgG2aFc (Fc fusion, not shown: a dimerising Fc or GST)
scFv: B4 scFv with S23T, N27S, K53S, P56A, A98G, V99A, A185S

Kd [3]: 450 nM
koff [3]: 0.057 s⁻¹
kon [3]: 130000 M⁻¹ s⁻¹
B12: AS179732 VL1g1VH1g1 scFv-mIgG2aFc (Fc fusion, not shown: a dimerising Fc or GST; small tags and cut ends)
scFv: B4 scFv with N27S, K53S, P56A, A98G, V99A

Kd [3]: 54 nM
B13: AS179732 VL1g1VH1g1-N73Y scFv-mIgG2aFc (Fc fusion, not shown: a dimerising Fc or GST)
chain: B4 scFv with N27S, K53S, P56A, A98G, V99A, N198Y
notes: Humanized

binding result [4]: no binding
binding result [5]: no binding
binding result [6]: no binding
binding result [7]: no binding
binding result [8]: no binding
binding result [9]: no binding
binding result [10]: no binding
binding result [11]: no binding
binding result [12]: no binding
binding result [13]: no binding
binding result [14]: no binding
binding result [15]: no binding
Affinity increase [16]: > 2 fold
B14: AS170036 VL1VH1-VLH98V (scFv)
scFv: QSALTQPRSVSGSPGQSVTISCAGTSSDVGSENYVSWYQQHPGKAPKLMIYQVNKRASGVPDRFSGSKSGNTASLTISGLQAEDEADYYCASYRSSDVNIVFGGGTKLTVLGGGGSGGGGSGGGGSEVQLVESGGGLVQPGGSLRLSCAASGFTFSSYAMSWVRQAPGKGLEWVSTINSGTGSPYYADSVKGRFTISRDNSKNTLYLQMNSLRAEDTAVYYCAKNFFDGSWFLGPPAMDYWGQGTLVTVSSHHHHHH

binding result [4]: no binding
binding result [5]: no binding
binding result [6]: no binding
binding result [7]: no binding
binding result [8]: no binding
binding result [9]: no binding
binding result [10]: no binding
binding result [11]: no binding
binding result [12]: no binding
binding result [13]: no binding
binding result [14]: no binding
binding result [15]: no binding
Affinity increase [16]: > 2 fold
B15: AS170036 VL1VH1-VLH98P (scFv)
scFv: B14 scFv with V98P

binding result [4]: no binding
binding result [5]: no binding
binding result [6]: no binding
binding result [7]: no binding
binding result [8]: no binding
binding result [9]: no binding
binding result [10]: no binding
binding result [11]: no binding
binding result [12]: no binding
binding result [13]: no binding
binding result [14]: no binding
binding result [15]: no binding
Affinity increase [16]: > 2 fold
B16: AS170036 VL1VH1-VLH98A (scFv)
scFv: B14 scFv with V98A

binding result [5]: no binding (tested: all below 3.5 RU)
binding result [6]: no binding (tested: all below 3.5 RU)
binding result [7]: no binding (tested: all below 3.5 RU)
binding result [8]: no binding (tested: all below 3.5 RU)
binding result [9]: no binding (tested: all below 3.5 RU)
binding result [10]: no binding (tested: all below 3.5 RU)
binding result [12]: no binding (tested: all below 3.5 RU)
binding result [13]: no binding (tested: all below 3.5 RU)
binding result [14]: no binding (tested: all below 3.5 RU)
binding result [15]: no binding (tested: all below 3.5 RU)
Affinity increase [16]: > 2 fold
Affinity increase [17]: 2.7 fold
Kd [18]: 90 nM
B17: AS170036 VL1VH1-VHS57M (scFv)
scFv: B14 scFv with V98H, S183M

binding result [4]: no binding
binding result [5]: no binding
binding result [6]: no binding
binding result [7]: no binding
binding result [8]: no binding
binding result [9]: no binding
binding result [10]: no binding
binding result [11]: no binding
binding result [12]: no binding
binding result [13]: no binding
binding result [14]: no binding
binding result [15]: no binding
Affinity increase [16]: > 2 fold
B18: AS170036 VL1VH1-VLE32W (scFv)
scFv: B14 scFv with E32W, V98H

binding result [4]: no binding
binding result [5]: no binding
binding result [6]: no binding
binding result [7]: no binding
binding result [8]: no binding
binding result [9]: no binding
binding result [10]: no binding
binding result [11]: no binding
binding result [12]: no binding
binding result [13]: no binding
binding result [14]: no binding
binding result [15]: no binding
Affinity increase [16]: > 2 fold
Affinity increase [17]: 2.3 fold
Kd [18]: 98 nM
B19: AS170036 VL1VH1-VHG56F (scFv)
scFv: B14 scFv with V98H, G182F

binding result [4]: no binding
binding result [5]: no binding
binding result [6]: no binding
binding result [7]: no binding
binding result [8]: no binding
binding result [9]: no binding
binding result [10]: no binding
binding result [11]: no binding
binding result [12]: no binding
binding result [13]: no binding
binding result [14]: no binding
binding result [15]: no binding
Affinity increase [16]: > 2 fold
B20: AS170036 VL1VH1-VLH98T (scFv)
scFv: B14 scFv with V98T
